The results in this text go back to PMC2588520.

Like-named read-outs stand apart in the source and are kept apart here.

Series [1] concerns the target T1, UP1 (proteolytic product of hnRNP A1) (UniProt P09651 1-196). The experiment in a line: EMSA. (Mobility shift assays separate free from complexed probe on a gel.)
The target in series [2] is T1, UP1 (proteolytic product of hnRNP A1). The experiment in a line: EMSA. The source holds these as a separate data set.

T1 sequence (P09651 1-196): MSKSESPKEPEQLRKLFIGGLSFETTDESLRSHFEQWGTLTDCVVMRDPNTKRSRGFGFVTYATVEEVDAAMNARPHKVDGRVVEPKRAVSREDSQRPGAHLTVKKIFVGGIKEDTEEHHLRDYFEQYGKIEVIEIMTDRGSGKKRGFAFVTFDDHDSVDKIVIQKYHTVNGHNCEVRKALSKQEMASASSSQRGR

Take UGAGAAGGGCGUAGG (ssRNA) [15-mer telomerase RNA]: the binding result in series [1] and in series [2] was “binds” in each case.
